Biological target: T1, β2-adrenergic receptor (β2AR, B2AR) (Homo sapiens, UniProt P07550)
T1 construct: expressed in transfected cells; host or cells: HEK293 cells (transient co-transfection, Lipofectamine 2000)
Assay: BRET arrestin recruitment assay: isoproterenol-induced recruitment of GFP-arrestin-3 WT or mutants to RLuc8-β2AR
Assay type: cell-based
Conditions: for Potency (pEC50 ± Std. error): isoproterenol concentration giving half-maximal arrestin recruitment to β2AR, BRET AUC over 19.5 min, isoproterenol 10 pM to 10 μM; for Recruitment to B2AR compared to wild-type arrestin-3 (in words): isoproterenol concentration-response curves, FIG. 1; for Efficacy (Emax ± Std. error) in %, normalized to WT: maximal isoproterenol-induced recruitment to β2AR, WT arrestin-3 at 10 μM isoproterenol set to 100%
Experimental: […] were seeded onto poly-L-lysine coated, white, 96-well plates at a density of ˜25,000 cells per well. […] The day following transfection, cell culture medium was exchanged with fresh medium. Another 24 h later cell culture medium was replaced with assay buffer (HBSS+20 mM HEPES and pH 7.4) and cells were treated with 5 μM cell-permeable substrate Coelenterazine 400A (Cayman Chemical), which is catalysed by the BRET donor RLuc8, resulting in the emission of light (λmax=410 nm). BRET measurement was performed in a plate reader PheraStar FSX (BMG Biotech) with the optical module (BRET2 plus, 515-30, 410-80). At t=4.5 min, isoproterenol (Tocris Bioscience) was added at increasing concentrations to the cells (from 10 pM to 10 μM). BRET ratio was determined by calculating the ratio of the light intensity emitted by the GFP (515 nm) over the light intensity emitted by the Rluc8/Coelenterazine 400A (410 nm). […] The coefficient of determination R^2 can range between 0 and 1 and represents the quality of the fitting between the experimental values (marks, FIG. 1) and the non-linear regression analysis (curves, FIG. 1). Experiments were performed in technical duplicates in two independent experiments.
An arrestin recruitment assay based on Bioluminescence Resonance Energy Transfer (BRET) was performed to compare the recruitment efficiencies of arrestin-3 double and triple mutants with wild-type arrestin-3 towards B2AR.
The recruitment responses can be defined by two pharmacological parameters: potency and efficacy. In general, efficacy (Emax) is a measure of the maximum effect that is expected from a compound/drug. […] Potency is often given as the EC50 value, which defines the amount of compound required to produce 50% of that compound's maximal effect. For simpler illustration, the pEC50 value, which is the negative logarithm of the EC50 in molar concentrations, is shown.
The potency (pEC50) represents the molar concentration of isoproterenol necessary to obtain half of the total recruitment of arrestin-3 or efficiency (Emax) for each arrestin.

Molecule | Potency (pEC50 ± Std. error) | Recruitment to B2AR compared to wild-type arrestin-3 (in words) | Efficacy (Emax ± Std. error) in %, normalized to WT [%] | EC50 (converted from pEC50, isoproterenol-induced recruitment to β2AR, read-out: Potency expressed as isoproterenol concentration) [nM]
Double mutant A: Arrestin-3 double mutant containing T299A and I386A when compared to human wt arrestin-3 | 7.1±0.03 | increased recruitment efficacy | 131.5±1.82 | 
Triple mutant B: Arrestin-3 triple mutant containing T299A, I386A and R166A when compared to human wt arrestin-3 (protein, Arrestin-3 triple mutant B containing T299A, I386A and R166A) MGEKPGTRVFKKSSPNCKLTVYLGKRDFVDHLDKVDPVDGVVLVDPDYLKDRKVFVTLTCAFRYGREDLDVLGLSFRKDLFIATYQAFPPVPNPPRPPTRLQDRLLRKLGQHAHPFFFTIPQNLPCSVTLQPGPEDTGKACGVDFEIRAFCAKSLEEKSHKRNSVALVIRKVQFAPEKPGPQPSAETTRHFLMSDRSLHLEASLDKELYYHGEPLNVNVHVTNNSTKTVKKIKVSVRQYADICLFSTAQYKCPVAQLEQDDQVSPSSTFCKVYTITPLLSDNREKRGLALDGKLKHEDANLASSTIVKEGANKEVLGILVSYRVKVKLVVSRGGDVSVELPFVLMHPKPHDHIPLPRPQSAAPETDVPVDTNLIEFDTNYATDDDAVFEDFARLRLKGMKDDDYDDQLC | 7.3±0.06 | increased recruitment efficacy | 103.0 ± 2.53 | 50.1
Triple mutant D: Arrestin-3 triple mutant containing T299A, I386A and R393A when compared to human wt arrestin-3 (protein, Arrestin-3 triple mutant D containing T299A, I386A and R393A) MGEKPGTRVFKKSSPNCKLTVYLGKRDFVDHLDKVDPVDGVVLVDPDYLKDRKVFVTLTCAFRYGREDLDVLGLSFRKDLFIATYQAFPPVPNPPRPPTRLQDRLLRKLGQHAHPFFFTIPQNLPCSVTLQPGPEDTGKACGVDFEIRAFCAKSLEEKSHKRNSVRLVIRKVQFAPEKPGPQPSAETTRHFLMSDRSLHLEASLDKELYYHGEPLNVNVHVTNNSTKTVKKIKVSVRQYADICLFSTAQYKCPVAQLEQDDQVSPSSTFCKVYTITPLLSDNREKRGLALDGKLKHEDANLASSTIVKEGANKEVLGILVSYRVKVKLVVSRGGDVSVELPFVLMHPKPHDHIPLPRPQSAAPETDVPVDTNLIEFDTNYATDDDAVFEDFAALRLKGMKDDDYDDQLC | 7.2 ± 0.03 |  | 89.2 ± 1.23 | 
Triple mutant C: Arrestin-3 triple mutant containing T299A, I386A and D298A when compared to human wt arrestin-3 (protein, Arrestin-3 triple mutant C containing T299A, I386A and D298A) MGEKPGTRVFKKSSPNCKLTVYLGKRDFVDHLDKVDPVDGVVLVDPDYLKDRKVFVTLTCAFRYGREDLDVLGLSFRKDLFIATYQAFPPVPNPPRPPTRLQDRLLRKLGQHAHPFFFTIPQNLPCSVTLQPGPEDTGKACGVDFEIRAFCAKSLEEKSHKRNSVRLVIRKVQFAPEKPGPQPSAETTRHFLMSDRSLHLEASLDKELYYHGEPLNVNVHVTNNSTKTVKKIKVSVRQYADICLFSTAQYKCPVAQLEQDDQVSPSSTFCKVYTITPLLSDNREKRGLALDGKLKHEAANLASSTIVKEGANKEVLGILVSYRVKVKLVVSRGGDVSVELPFVLMHPKPHDHIPLPRPQSAAPETDVPVDTNLIEFDTNYATDDDAVFEDFARLRLKGMKDDDYDDQLC | 7.2 ± 0.04 |  | 108.9 ± 1.84 | 

Source: US12522647B2, “Beta-arrestin mutants” (PAUL SCHERRER INSTITUT, priority 2019, dated 2026)
